{"source": "paper PMC2956116", "about": "(Structure (London, England : 1993), 2010)", "proteins": {"B1": {"name": "Staphylococcus aureus pyruvate carboxylase (enzyme, S. aureus, UniProt A0A0H3JRU9 1-1150, looked up)", "chain": "MKQIKKLLVANRGEIAIRIFRAAAELDISTVAIYSNEDKSSLHRYKADESYLVGSDLGPAESYLNIERIIDVAKQANVDAIHPGYGFLSENEQFARRCAEEGIKFIGPHLEHLDMFGDKVKARTTAIKADLPVIPGTDGPIKSYELAKEFAEEAGFPLMIKATSGGGGKGMRIVREESELEDAFHRAKSEAEKSFGNSEVYIERYIDNPKHIEVQVIGDEHGNIVHLFERDCSVQRRHQKVVEVAPSVGLSPTLRQRICDAAIQLMENIKYVNAGTVEFLVSGDEFFFIEVNPRVQVEHTITEMVTGIDIVKTQILVAAGADLFGEEINMPQQKDITTLGYAIQCRITTEDPLNDFMPDTGTIIAYRSSGGFGVRLDAGDGFQGAEISPYYDSLLVKLSTHAISFKQAEEKMVRSLREMRIRGVKTNIPFLINVMKNKKFTSGDYTTKFIEETPELFDIQPSLDRGTKTLEYIGNVTINGFPNVEKRPKPDYELASIPTVSSSKIASFSGTKQLLDEVGPKGVAEWVKKQDDVLLTDTTFRDAHQSLLATRVRTKDMINIASKTADVFKDGFSLEMWGGATFDVAYNFLKENPWERLERLRKAIPNVLFQMLLRASNAVGYKNYPDNVIHKFVQESAKAGIDVFRIFDSLNWVDQMKVANEAVQEAGKISEGTICYTGDILNPERSNIYTLEYYVKLAKELEREGFHILAIKDMAGLLKPKAAYELIGELKSAVDLPIHLHTHDTSGNGLLTYKQAIDAGVDIIDTAVASMSGLTSQPSANSLYYALNGFPRHLRTDIEGMESLSHYWSTVRTYYSDFESDIKSPNTEIYQHEMPGGQYSNLSQQAKSLGLGERFDEVKDMYRRVNFLFGDIVKVTPSSKVVGDMALYMVQNDLDEQSVITDGYKLDFPESVVSFFKGEIGQPVNGFNKDLQAVILKGQEALTARPGEYLEPVDFEKVRELLEEEQQGPVTEQDIISYVLYPKVYEQYIQTRNQYGNLSLLDTPTFFFGMRNGETVEIEIDKGKRLIIKLETISEPDENGNRTIYYAMNGQARRIYIKDENVHTNANVKPKADKSNPSHIGAQMPGSVTEVKVSVGETVKANQPLLITEAMKMETTIQAPFDGVIKQVTVNNGDTIATGDLLIEIEKATD", "modifications": "biotinylated Lys1144"}}, "biological_target": "the molecule itself", "experiment": "cryo-EM structure", "data": [{"protein": "B1", "values": [{"measurement": "stoichiometry N", "result": 4}]}]}
